Assay results taken from patent US20090181444A1, “MODIFIED CARBOHYDRATE PROCESSING ENZYME” (priority 2002, published 2009).

Assays:
Assay type in all cases: biochemical
[1] = Hydrolysis of 4-methylumbelliferyl-β-D-fucoside, initial rates; details: 4-MUFuc, 80° C., pH 6.5
Procedure: (§1) Parameters were determined by the method of initial rates. Activity was measured in time course assays of the hydrolysis of 4-methylumbelliferyl-β-D-glycosides (β-D-gluco, β-D-galacto, β-D-fuco, β-D-manno, β-D-xylo, β-D-glucurono) at 5-15 concentrations (0.001-1.5 mM) incubated at 80° C. in 50 mM sodium phosphate buffer, pH 6.5. Reactions were terminated at 2, 5, 10, 15 min by the addition of 100 μl of ice cold 1M NazCO3, pH 10 and analyzed (Labsystems Fluoroscan Ascent plate reader, […]). KM and kcat were derived by fitting the initial rates to hyperbolic Michaelis-Menten curves using GraFit 4 (Erithacus Software Ltd, Staines, UK).
(§2) Determination of the Michaelis-Menten parameters for the WT and mutant enzymes was performed at pH 6.5 at 80° C. for a broad range of representative, fluorophore-containing 4-methylumbelliferyl glycoside substrates, which allowed activities to be determined with a high degree of sensitivity (Table). Under these optimized assay conditions, the glucoside (Glc), galactoside (Gal) and fucoside (Fuc) substrates were hydrolysed well by SSβG-WT, but the xyloside (Xyl) substrate was hydrolysed relatively poorly (approx. 3% of turnover as determined by kcat compared with β-D-glucoside). […] In all cases the absolute D-stereospecificity and β-stereoselectivity of SSβG was maintained and no activity was detected towards L- or α-glycoside substrates.

[2] = Hydrolysis of 4-methylumbelliferyl-β-D-mannoside, initial rates; details: 80° C., pH 6.5
Procedure: as §1, §2

[3] = Hydrolysis of 4-methylumbelliferyl-β-D-glucuronide, initial rates; details: 80° C., pH 6.5
Procedure: as §1, §2

[4] = Kinetic assay with o-nitrophenyl β-D-galactopyranoside-6-phosphate, absorbance at 405 nm; details: oNPGalP6, 45° C., pH 6.5 phosphate buffer; averaged over 3 runs, except * 2 runs
Procedure: The kinetic activity of SsδG was assessed using ultra-violet/visible spectroscopy. Cleavage of the glycosidic bond of the nitrophenyl sugar analogue releases a chromophore (Scheme 18), either p-nitrophenol or o-nitrophenol.
The absorbance of these chromophores at 405 nm was continuously measured at regular time intervals, and the Beer-Lambert Law used to calculate the chromophore concentration at each of these time intervals.
In order to use this equation the extinction coefficient, ∈, of both p-nitrophenol and o-nitrophenol were calculated. Enzyme kinetic parameters were assessed using the initial rates method. The gradient of a plot of chromophore concentration against time gave the initial rate of reaction at a series of substrate concentrations (0.05-10 mM). Kinetic parameters were calculated by regression analysis of the kinetic data on the Michaelis-Menten Model (Fersht, A., Enzyme Structure and Mechanism, W.H. Freeman and Company, New York (1985)). The initial rate of reaction was measured. This model is valid when [substrate]>>[enzyme], which are initial rate conditions.
KM and νmax were calculated from non-linear Michaelis-Menten and linear Lineweaver-Burk plots. From these values, kcat and kcat/KM were calculated and compared.
KM=νmax/2, it is the concentration of substrate at which half the active sites are filled. Higher KM values correspond to weaker binding and lower KM values correspond to stronger binding kcat, the turnover number is the number of substrate molecules which are converted to product when the enzyme is saturated with substrate and ν (rate) is maximised. […] To allow comparison of the activity of the enzymes, ln({kcat/KM}mutant/{kcat/KM}WT) was calculated for each enzyme-substrate combination, to give overall activity relative to WT.
Substrate solutions (concentration 10 mM in 50 mM pH 6.5 phosphate buffer) were prepared. […] The enzyme stock solution (˜1 mgmL^−1) was diluted between 16- and 80-fold depending on the kinetic parameters determined*. […] Simultaneously a 96-well flat bottom microtitre plate was incubated at 45° C. in a plate reader. […] The plate containing the enzyme and substrate solutions was then incubated in the plate reader at 45° C. to allow equilibration. […] Release of p-nitrophenol/o-nitropbenol was measured by absorbance at […], with an automix of 3 s before the first read and Is between every subsequent read. The run time chosen was between 6 min and 10 min*, and readings were taken at intervals of between 6 s and 10 s*.
A graph of concentration of the released chromophore (either pNP or oNP) against time was drawn for each concentration using Microsoft Excel. […] These gradients were entered into Grafit, which calculated KM and νmax from the Michelis-Menten and Lineweaver-Burk plots. From these kcat and kcat/KM could be calculated. […]

[5] = Substrate specificity compared across 4-methylumbelliferyl-β-D-glycosides
Procedure: as §1, §2

B1: WT: Wild type β-glycosidase from Sulfolobus solfataricus (SEQ ID NO: 2), recombinant with N-terminal His6-tag (protein, listed as Sulfolobus solfataricus)
chain: MYSFPNSFRFGWSQAGFQSEMGTPGSEDPNTDWYKWVHDPENMAAGLVSGDLPENGPGYWGNYKTFHDNAQKMGLKIARLNVEWSRIFPNPLPRPQNFDESKQDVTEVEINENELKRLDEYANKDALNHYREIFKDLKSRGLYFILNMYHWPLPLWLHDPIRVRRGDFTGPSGWLSTRTVYEFARFSAYIAWKFDDLVDEYSTMNEPNVVGGLGYVGVKSGFPPGYLSFELSRRHMYNIIQAHARAYDGIKSVSKKPVGIIYANSSFQPLTDKDMEAVEMAENDNRWWFFDAIIRGEITRGNEKIVRDDLKGRLDWIGVNYYTRTVVKRTEKGYVSLGGYGHGCERNSVSLAGLPTSDFGWEFFPEGLYDVLTKYWNRYHLYMYVTENGIADDADYQRPYYLVSHVYQVHRAINSGADVRGYLHWSLADNYEWASGFSMRFGLLKVDYNTKRLYWRPSALVYREIATNGAITDEIEHLNSVPPVKPLRH
modifications: N-terminal His6 tag
Km [1]: 11 ± 2 µM
kcat [1]: 80 ± 2 s⁻¹
Km ([2]; 4-MUMan): 36 ± 9 µM
kcat ([2]; 4-MUMan): 1.8 ± 0.2 s⁻¹
β-D-mannoside activity, turnover relative to β-D-glucoside [2]: approx. 1%
kcat ([3]; 4-MUGlcA): 0.81 ± 0.18 s⁻¹
Km ([3]; 4-MUGlcA, read-out: Km): 1300 ± 400 µM
β-D-glucuronide activity, turnover relative to β-D-glucoside [3]: ~0.5%
Km [4]: 2090 µM
kcat [4]: 5.52 s⁻¹
specificity range of kcat/KM for Glc:Gal:Xyl:Man [5]: 100 fold
